B1: Ab 15 scFv-Fc (scFv, V domains shown)
VH: QVQLVQSGGGLVKPGRSLRLSCTASGFTFGDYAMSWFRQAPGKGLEWVGFIRSKAYGGTTGYAASVKGRFTISRDDSKSIAYLQMNSLKTEDTAVYYCTTADDDMDVWGKGTTVTVSS
VL: NFMLTQPHSVSESPGKTVTISCTRSSGTIASNYVQWYQQRPGSAPTTVIYEDNQRPSGVPDRFSGSIDRSSNSASLTISGLTPDDEADYYCQSYDTSNHYVFGTGTKVTVL
B2: Ab_13 (scFv, V domains shown)
VH: QVTLKESGPKLVKPTQTLTLTCTFSGFSLSTSGVGVGWIRQPPGKALEWLALIYWDDDKRYSPSLKSRLTIAKDTSKYQVVLTMTNMDPVDTATYYCARISGSGYFYPFDIWGQGTMVTVSA
VL: NFMLTQPHSVSESPGKTVTISCTRSSGSIASNYVQWYQQRPGSAPTTVIYEDNQRPSGVPDRFSGSIDSSSNSASLTISGLKTEDEADYYCQSYDSSNLWVFGGGTKLTVL
B3: Ab_17 (scFv, V domains shown)
VH: QVQLVQSGGGVVQPGRSLRLSCAASGFTFDDYAMHWVRQVPGKGLEWVSGIDWNSGVIGYADSVKGRFTISRDNVKNSLYLQMNSLRTEDSALYYCAKDIGPGGSGSYYAFDIWGQGTTVTVSS
VL: QSALTQPASVSGSPGQSITISCTGTSSDVGGSKYVSWYQQHPGKAPKVMIYDVTKRPSGVPDRFSGSKSGNTASLTISGLQAEDEADYYCAAWDDSLNGVVFGGGTKLTVL
B4: Ab 12 Fab (Fab, V domains shown)
VH: EVQLVESGPGVVSPSATLFLTCSVSGGSIRTHSWNWIRQPPGKPLEWIGFIHHSGATNKNPSLKSRVTISSDTSKNEFSLTLTSVTAADTAVYYCARGPGILSYWSRGTLVTVSS
VL: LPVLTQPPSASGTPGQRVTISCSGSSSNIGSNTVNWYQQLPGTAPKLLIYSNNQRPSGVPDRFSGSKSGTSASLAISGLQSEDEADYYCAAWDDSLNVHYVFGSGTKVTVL
B5: Ab 12 IgG (antibody, V domains shown)
VH: EVQLVESGPGVVSPSATLFLTCSVSGGSIRTHSWNWIRQPPGKPLEWIGFIHHSGATNKNPSLKSRVTISSDTSKNEFSLTLTSVTAADTAVYYCARGPGILSYWSRGTLVTVSS
VL: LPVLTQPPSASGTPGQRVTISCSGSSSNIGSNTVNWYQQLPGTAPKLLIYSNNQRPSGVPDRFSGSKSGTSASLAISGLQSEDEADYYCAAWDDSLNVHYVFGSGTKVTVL
B6: Ab 12 scFv-Fc (S1-R3-T1-H7) (scFv, V domains shown)
VH: EVQLVESGPGVVSPSATLFLTCSVSGGSIRTHSWNWIRQPPGKPLEWIGFIHHSGATNKNPSLKSRVTISSDTSKNEFSLTLTSVTAADTAVYYCARGPGILSYWSRGTLVTVSS
VL: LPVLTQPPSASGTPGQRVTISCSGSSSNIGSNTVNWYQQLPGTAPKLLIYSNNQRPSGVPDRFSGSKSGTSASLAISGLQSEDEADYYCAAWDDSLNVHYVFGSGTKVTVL
B7: Ab 27 scFv-Fc (scFv, V domains shown)
VH: QVQLVQSGTEVKKPGASVKVSCKASGYSFTGSHLHWVRQAPGQGLEWMGWINPDSGVINYAQKFQGRVTLTRDTSISTAYMELSGLRSDDTAVYYCARDKAIGYVWALDYWGQGTLVTVSS
VL: QSALTQPPSVSGSPGQSVTISCTGTSSDVGTYNRVSWYQQPPGKAPKLMIYEVSNRPSGVSNRFSGSKSGNTASLTISGLQAEDEADYYCSSYTRTFTYVFGTGTKVTVL
B8: Ab 19 scFv-Fc (scFv, V domains shown)
VH: EVQLVESGAEVKKPGESLKISCKGSGYSFTSYWIGWVRQMPGKGLEWMGIIYPGDSDTRYSPSFQGQVTISADKSISTAYLQWSSLKASDTAMYYCARRGDLDAFDIWGQGTMVTVSS
VL: QPGLTQPPAASGTPGQRVTVSCSGASANIGSNAVSWFKQFPETAPRLLISGNTHRPSGVPDRVSGSKSGTSASLTISGLQSDDEADYYCAAWDDSLNGYVFGSGTKVTVL
B9: Ab_18 (scFv, V domains shown)
VH: EVQLVQSGGGVVQPGRSLRVSCAASGFSFSRYGMHWVRQAPGKGLEWVAFIRHDGSKKYYADSVEGRFTISRDNSRNTVSLEMNSLRGEDTAVYYCAKDGRLEAALDDWGQGTLVTVSS
VL: NFMLTQPHSMSGSAGKTVTVSCIRSSGSIANNFVQWYQQRPGSAPTTVIYEDNQRPSGVPDRFSGSIDSSSNSASLTISGLKTEDEADYYCQSYDSSNLVFGGGTRLTVL
B10: Ab 26 scFv-Fc (scFv, V domains shown)
VH: QVQLVQSGGGLVQPGRSLRLSCAASGFTFDDYAMHWVRQVPGKGLEWVSGIDWNSGVIGYADSVKGRFTISRDNAKNSLYLQMNSLRAEDTALYYCAKDAYSYGFLGAFDIWGQGTMVTVSS
VL: LPVLTQPPSVSVAPGQTASITCGGDNIRTKGVHWYQQKPGQAPLLVIYYASDRPSGIPERFSGSSSGNTATLTISRVEAGDEADYYCQVWDSSSDLVVFGGGTTLTVL
B11: Ab 23 scFv-Fc (scFv, V domains shown)
VH: EVQLVQSGAEVKKPGSSVKVSCRSSGGTFSTYGITWVRQAPGQGLEWMGRIIPSLGIPNYAQKFQGRVTITADTSVSTAWMELSSLESDDTAIYYCARENIDLATNDFWGQGTLVTVSS
VL: QSALTQPPSASGSPGQSVTISCTGTSRDIGAYGYVSWYQQVPGKAPKLIIYEVRNRPSGVSSRFSGSKSGNTASLTISGLQAEDEADYYCSSYTSSSTLDVVFGGGTKLTVL
B12: Ab 14 scFv-Fc (scFv, V domains shown)
VH: QVQLQQSGPGLVKPSQTLSLTCAISGDSVSSNSAAWNWIRQSPARGLEWLGRTYYRSRWYNDYAISMKSRITINPDTSKNQFSLQLESVTPEDTAVYYCAREIRGFDYWGQGTLVTVSS
VL: QSVLTQPPSASGSPGQSVTISCTGTSSDVGAYNFVSWYQHHPGKAPKLIIYDFNKRPSGVPDRFSGSKSGNTASLTVSGLQADDEADYYCSSYAGSNNFDVVFGGGTKLTVL
B13: Ab_16 (scFv, V domains shown)
VH: QVQLVQSGGGVVQPGRSLRLSCAASGFTFSNYGMHWVRQAPGKGLEWVALIWERGSKKDYADSVKGRFTVSRDNSKNTLYLQMNSLRPEDTAVYFCAREGISMTGAEYFQHWGQGTLVTVSS
VL: QSVLTQPPSVSGSPGQRVTMSCTGSSSNIGAGYDVHWYQQVPGAAPRLLIYGTNNRPSGVPDRFSGSKSGTSASLTITGLQAEDEADYYCQSYDNSLTDPYVFGTGTKVTVL
B14: Ab 21 (scFv, V domains shown)
VH: QVQLVQSGGGLVQPGGSLRLSCATSGFTFDDYAMHWVRQAPGKGLEWVSGISWNSGSIGYVDSVKGRFTISRDNRNNKVYLQMNNLRAEDTAVYYCARDWWGSIDHWGLGTLVTVSS
VL: QSALTQPRSVSGSPGQSVTISCTGTSSDVGGYDYVSWYQQHPGKAPKLIIYDVSKRPSGVPDRFSGSKSGNTASLTVSGLQAEDEADYYCSSYTSSSPVVFGGGTKLTVL
B15: Ab 25 scFv-Fc (scFv, V domains shown)
VH: QVQLVQSGGGLVQPGGSLRLSCAASGFTFSSYWMSWVRQAPGKGLEWVANIKQDGSEKYYVDSVKGRFTISRDNAKNSLYLQMNSLRAEDTAVYYCARGFYYYGAFDIWGQGTTVTVSS
VL: NFMLTQPHSVSESPGKTVTISCTGSSGSIASNYVQWYQQRPGSAPTTVIYEDNQRPSGVPDRFSGSIGSSSNSASLTISGLKTEDEADYYCQSYDSSNHWVFGGGTKLTVL
B16: Ab 20 (scFv, V domains shown)
VH: QVQLVQSGGGSVKPGGSLRLSCAASGYRLSDYYMHWVRQAPGKGLEWVANIKQDGSEKYYVDSVKGRFTISRDNAKNSLYLQMNSLRAEDTAVYYCARVRGWSRGYFDYWGQGTLVTVSS
VL: NFMLTQPHSVSESPGKTVTISCTGSSGSIASNYVQWYQQRPGSAPTTVIYEDNQRPSGVPDRFSGSIDSSSNSASLLISGLKTEDEADYYCQSYDSSNHWVFGGGTKLTVL
B17: Ab 28 scFv-Fc (scFv, V domains shown)
VH: QVTLKESGPGLVNPSETLSLTCTVSGASISNSFWSWIRQSPGKGLEWIGYTSYSGNSIYNPSLKSRLTMSIDTSKNQLSLNLRSLTAADTAVYYCARREWIKGHFDYWGQGTLVTVSS
VL: NFMLTQPHSVSESPGKTVTISCTGSGGSIASNYVQWYQQRPGSAPTTVIYEDNQRPSGVPDRFSGSIDSSSNSASLTISGLKTEDEADYYCQSYDSSNPVVFGGGTKLTVL

How the values were obtained:
[1] = target: biotinylated RBD (BLI sensors) (UniProt P0DTC2 319-537); test: BLI
[2] = target: SARS2 spike on transduced 293T cells (UniProt P0DTC2 14-1273); test: FACS

| Binder | Kd [1] | EC50 [2] |
| --- | --- | --- |
| B1 | 6.61 nM | – |
| B2 | 0.922 nM | – |
| B3 | 0.882 nM | – |
| B4 | – | 0.582 nM |
| B5 | – | 0.00588 nM |
| B6 | – | 0.0237 nM |
| B7 | 0.906 nM | – |
| B8 | 0.533 nM | – |
| B9 | 2.31 nM | – |
| B10 | 0.704 nM | – |
| B11 | < 0.001 nM | – |
| B12 | 0.911 nM | – |
| B13 | 0.959 nM | – |
| B14 | 1.48 nM | – |
| B15 | 0.223 nM | – |
| B16 | 1.9 nM | – |
| B17 | 0.166 nM | – |
